Measurements reported in patent US20200345810A1, “USE OF ALPHA-1-MICROGLOBULIN FOR PROTECTION OF BONE MARROW CELLS” (GUARD THERAPEUTICS INTERNATIONAL AB, priority 2017, published 2020).

Assays:
peripheral blood cells = experiment: Peripheral blood reticulocyte count after 177Lu-DOTATATE exposure; format: in vivo, BALB/c mice; conditions: A1M 20 mg/kg subcutaneous 30 minutes prior to 150 MBq 177Lu-DOTATATE i.v.; 4 days; FIG. 2B
Protocol: (§1) Female BALB/c mice (Taconic, Denmark) at the age of 12 weeks were used in this study. Two groups (n=5-10) received a subcutaneous administration of either A1M (20 mg/kg) or vehicle buffer (10 mM Na-phosphate pH 7.4+0.15 M NaCl+12 mM histidine) followed by an intravenous (i.v.) injection, 30 minutes later, of ^177Lu-DOTATATE (150 MBq). A control group (n=5-10) received a subcutaneous administration of vehicle, followed by, 30 minutes after, an i.v. injections of NaCl. Animals were sacrificed 4 days post-injections.
After 4 days (post ^177Lu-DOTATATE administration), blood, for peripheral blood cell and reticulocyte count, was sampled from vena saphena, on non-anesthetized animals, in EDTA pre-coated vials (Microvette CB 300 K2E, Sarstedt, Nümbrecht, Germany) and placed on a rocking mixer in room temperature followed by analysis as described below. Thereafter the animals were anaesthetized using isoflurane, sacrificed by cervical dislocation and femur (left and right) sampled and placed in PBS, pH 7.4 in a 24 well plate standing on wet ice.
Following collection of peripheral blood SYSMEX KX-21N hematology analyzer was used for determining Blood parameters. Reticulocyte count was determined using LSR Fortessa or Canto II flow cytometry using Retic-Count (BD Biosciences).

WT cells = experiment: Drug screen: proliferation of Kit+ bone marrow cells in erythroid culture (CellTiter Glo); format: cell-based, mice; conditions: 5 days expansion; FIG. 4B
Protocol: (§2) FIG. 4: A1M treatment improves expansion of erythroid cells from a murine DBA model and patients. CD117 (Kit)+ bone marrow cells were treated with Doxycycline to induce Rps19 deficiency. Twenty four hours after Doxycycline administration, cells were treated with drugs interfering with iron or heme availability. The ATP measuring platform CellTiter Glo was used to monitor viable cells after 5 days of expansion. In A) a schematic picture of the drug screen is shown. B) Proliferation of bone marrow cells (as described in A) from Rps19 inducible mice treated with respective drug compounds interfering with iron or heme availability is presented. Shown is also a schematic picture of drug activity where A1M is shown to have intracellular effects by reducing unbound heme in erythroblast. The cells were cultured in erythroid promoting media for 5 days. Kruskal-Wallis non parametric test with Dunn's multiple comparisons test was used for statistical analysis, and genotypes were compared to respective control, separately. p-values: *≤005, **≤001, ***≤0001, ****≤00001. C) Concentration of free unbound intracellular heme in Kit+ bone marrow cells from the Rps19 deficient mouse expanded in erythroid culture with A1M or vehicle for 72 hours. Mann Whitney non parametric analysis was employed for statistical analysis within each genotype. D) Expansion of CD34+ erythroid precursors from peripheral blood of DBA patients with mutations in RPS19, RPL35a and RPS26, or healthy controls treated with A1M or vehicle in erythroid promoting media for 7 days. […]
(§3) The drugs administered 24 hours after Doxycycline administration were A1M (supplied by A1M Pharma AB, Sweden), N-methyl mesoporphyrin IX (AH Diagnostics, Denmark), Succinylacetone, hemin, Deferoxamine, Ferrostatin and N-acetyl-L-cystein and hemopexin (Sigma-Aldrich). Cell expansion 5 days after drug administration was measured using CellTiter Glo (Promega, US), which measures the number of viable and metabolically active cells in culture based on quantitation of the ATP present. Plates were read on Victor 3 Multilabel counter (PerkinElmer, US).

[1] = test system: Rps19 deficient erythroid precursors; experiment: as above; format: cell-based, mice; conditions: 5 days expansion; A1M at 5 and 10 μM; FIG. 4B
Protocol: as §2, §3

[2] = test system: Rps19 deficient erythroid cells; experiment: Free unbound intracellular heme in Kit+ bone marrow cells expanded in erythroid culture; format: cell-based, mouse; conditions: erythroid culture with A1M or vehicle for 72 hours; FIG. 4C
Protocol: as §2, with “genotype.” for “genotype. D) Expansion of CD34+ erythroid precursors from peripheral blood of DBA patients with mutations in RPS19, RPL35a and RPS26, or healthy controls treated with A1M or vehicle in erythroid promoting media for 7 days.”

[3] = general background on A1M secreted into the blood stream; cited from earlier work
[4] = test system: erythroid precursors from DBA patients; experiment: Expansion of CD34+ erythroid precursors from peripheral blood (manual cell count); format: cell-based, human; conditions: 5 μM A1M every 2-3 days, 7-8 days; mutations in RPS19, RPS26, RPL35a; FIG. 4D
Protocol: as §2, with “genotype.” for “genotype. D) Expansion of CD34+ erythroid precursors from peripheral blood of DBA patients with mutations in RPS19, RPL35a and RPS26, or healthy controls treated with A1M or vehicle in erythroid promoting media for 7 days.”

[5] = test system: cells from healthy subjects; experiment: as above; format: cell-based, human; conditions: 5 μM A1M every 2-3 days, 7-8 days; FIG. 4D
Protocol: as §2, with “genotype.” for “genotype. D) Expansion of CD34+ erythroid precursors from peripheral blood of DBA patients with mutations in RPS19, RPL35a and RPS26, or healthy controls treated with A1M or vehicle in erythroid promoting media for 7 days.”

bone marrow cells = experiment: Bone marrow flow cytometry after 177Lu-DOTATATE exposure (radiation-induced damage); format: in vivo, BALB/c mice; conditions: 4 days
Protocol: as §1
After 4 days (post ^177Lu-DOTATATE administration), blood, for peripheral blood cell and reticulocyte count, was sampled from vena saphena, on non-anesthetized animals, in EDTA pre-coated vials (Microvette CB 300 K2E, Sarstedt, Nümbrecht, Germany) and placed on a rocking mixer in room temperature followed by analysis as described below. […]
Bone marrow cells were isolated by crushing femur in PBS containing 2% FCS (GIBCO, Waltham, Mass., USA) and passing them though a 70 um cell strainer to obtain single cell suspension. […] All experiments were performed on LSRFortessa (BD Biosciences) flow cytometry and analyzed with FlowJo software.
Bone marrow cellularity was counted from the single cell suspension using hematology analyzer SYSMEX KX-21 N.

[6] = Solubility/stability and function of A1M mutation variants; format: physicochemical; conditions: mutated A1M variants

B1: alpha-1-microglobulin (protein, listed as Homo sapiens)
chain: GPVPTPPDNIQVQENFDISRIYGKWYNLAIGSTCPWLKKIMDRMTVSTLVLGEGATEAEISMTSTHWRKGVCEETSGAYEKTDTDGKFLYHKSKWDITMESYVVHTNYDEYAIFLTKKFSRHHGPTITAKLYGRAPQLRETLLQDFRVVAQGVGIPEDSIFTMADRGECVPGEQEPEPILIPR
modifications: Wildtype human A1M, no mutations
notes: Recombinant human A1M, variant RMC-035 corresponding to A1M (R66H+N17,96D), supplied by A1M Pharma AB
percentage of viable reticulocytes in peripheral blood (peripheral blood cells): completely preserved reticulocyte population at the level of the non-radiation exposed control animals | proliferation of WT cells (WT cells): No effect on proliferation | proliferation of Rps19 deficient erythroid precursors [1]: increased proliferation | level of unbound intracellular heme [2]: significantly reduce the level of unbound intracellular heme back to WT levels | T½ of transport across the vessel walls to the extravascular compartment [3]: 2 to 3 min | expansion of erythroid precursors from three DBA patients [4]: improved expansion | expansion of cells from healthy subjects [5]: no such trend was observed | percentage of viable reticulocytes in bone marrow (bone marrow cells; A1M 20 mg/kg subcutaneous 30 minutes prior to 150 MBq 177Lu-DOTATATE i.v., FIG. 2A): completely preserved reticulocyte population at the level of the non-radiation exposed control animals | protection of the proerythroblast population (bone marrow cells; A1M 20 mg/kg subcutaneous 30 minutes prior to 150 MBq 177Lu-DOTATATE, FIG. 3): displayed protection of the proerythroblast population

B2: hemopexin: mainly extracellular heme scavenger (Sigma-Aldrich) (protein, UniProt P02790 24-462, looked up)
Hemopexin: TPLPPTSAHGNVAEGETKPDPDVTERCSDGWSFDATTLDDNGTMLFFKGEFVWKSHKWDRELISERWKNFPSPVDAAFRQGHNSVFLIKGDKVWVYPPEKKEKGYPKLLQDEFPGIPSPLDAAVECHRGECQAEGVLFFQGDREWFWDLATGTMKERSWPAVGNCSSALRWLGRYYCFQGNQFLRFDPVRGEVPPRYPRDVRDYFMPCPGRGHGHRNGTGHGNSTHHGPEYMRCSPHLVLSALTSDNHGATYAFSGTHYWRLDTSRDGWHSWPIAHQWPQGPSAVDAAFSWEEKLYLVQGTQVYVFLTKGGYTLVSGYPKRLEKEVGTPHGIILDSVDAAFICPGSSRLHIMAGRRLWWLDLKSGAQATWTELPWPHEKVDGALCMEKSLGPNSCSANGPGLYLIHGPNLYCYSDVEKLNAAKALPQPQNVTSLLGCTH
proliferation of Rps19 deficient erythroid precursors [1]: no effect

B3: (M41K+R66H): A1M with point mutations M41K and R66H (protein, UniProt P02760 20-203, looked up, variant M41K R66H)
Alpha-1-microglobulin: GPVPTPPDNIQVQENFNISRIYGKWYNLAIGSTCPWLKKIKDRMTVSTLVLGEGATEAEISMTSTHWRKGVCEETSGAYEKTDTDGKFLYHKSKWNITMESYVVHTNYDEYAIFLTKKFSRHHGPTITAKLYGRAPQLRETLLQDFRVVAQGVGIPEDSIFTMADRGECVPGEQEPEPILIPRV
modifications: Alpha-1-microglobulin
solubility and/or stability and function [6]: increased solubility and/or stability with maintained function

B4: (M41K+N17,96D): A1M with point mutations M41K and N17,96D (protein, UniProt P02760 20-203, looked up, variant M41K N17D N96D)
Alpha-1-microglobulin: GPVPTPPDNIQVQENFDISRIYGKWYNLAIGSTCPWLKKIKDRMTVSTLVLGEGATEAEISMTSTRWRKGVCEETSGAYEKTDTDGKFLYHKSKWDITMESYVVHTNYDEYAIFLTKKFSRHHGPTITAKLYGRAPQLRETLLQDFRVVAQGVGIPEDSIFTMADRGECVPGEQEPEPILIPRV
modifications: Alpha-1-microglobulin
notes: A1M with point mutations M41K and N17,96D
solubility and/or stability and function [6]: increased solubility and/or stability with maintained function

B5: (R66H+N17,96D): A1M with point mutations R66H and N17,96D; RMC-035 corresponds to this variant (protein, UniProt P02760 20-203, looked up, variant R66H N17D N96D)
Alpha-1-microglobulin: GPVPTPPDNIQVQENFDISRIYGKWYNLAIGSTCPWLKKIMDRMTVSTLVLGEGATEAEISMTSTHWRKGVCEETSGAYEKTDTDGKFLYHKSKWDITMESYVVHTNYDEYAIFLTKKFSRHHGPTITAKLYGRAPQLRETLLQDFRVVAQGVGIPEDSIFTMADRGECVPGEQEPEPILIPRV
modifications: Alpha-1-microglobulin RMC-035
solubility and/or stability and function [6]: increased solubility and/or stability with maintained function

B6: (M41K+R66H+N17,96D): A1M with point mutations M41K, R66H and N17,96D (protein, UniProt P02760 20-203, looked up, variant M41K R66H N17D N96D)
Alpha-1-microglobulin: GPVPTPPDNIQVQENFDISRIYGKWYNLAIGSTCPWLKKIKDRMTVSTLVLGEGATEAEISMTSTHWRKGVCEETSGAYEKTDTDGKFLYHKSKWDITMESYVVHTNYDEYAIFLTKKFSRHHGPTITAKLYGRAPQLRETLLQDFRVVAQGVGIPEDSIFTMADRGECVPGEQEPEPILIPRV
modifications: Alpha-1-microglobulin
notes: A1M with point mutations M41K, R66H and N17,96D
solubility and/or stability and function [6]: increased solubility and/or stability with maintained function
